Legend:
Assay in all cases: NMT1 activity assay (CoA release, fluorescence);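 note: released CoA from NMT1-catalysed myristoylation of octapeptide substrates detected by fluorescence after reaction with a maleimide coumarin dye (excitation 390 nm, emission 479 nm), triplicate points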
Type in all cases: biochemical
Conditions in all cases: other: octapeptide as NMT1 substrate; full length NMT1
[1] = substrate: CC(C)C[C@H](NC(=O)CN)C(=O)N[C@@H](CC(C)C)C(=O)N[C@@H](CC(=O)O)C(=O)N[C@@H](CCCNC(=N)N)C(=O)N[C@@H](CC(C)C)C(=O)N[C@@H](CO)C(=O)N[C@H](C(=O)O)C(C)C
Method: (§1) The amount of the released CoA were reacted with 7-diethylamino-3-(4′-maleimidylphenyl)-4-methylcoumarin. The assay was performed in 96-well black microplates. The produced fluorescence intensity was measured by Flex Station 3, and detected by microplate reader (excitation at 390 nm; emission at 479 nm).
(§2) The amount of the released CoA were reacted with 7-diethylamino-3-(4′-maleimidylphenyl)-4-methylcoumarin. The assay was performed in 96-well black microplates. The produced fluorescence intensity was measured by Flex Station 3, and detected by microplate reader (excitation at 390 nm; emission at 479 nm). To measure the Km and Vmax of NMT1 which catalyzed various octapeptides substrates derived from various proteins, twenty-five octapeptides were synthesized by GenScript. […] Each data point has three repeats.
(§3) Km and Vmax catalyzed by full length NMT1 protein were calculated.

[2] = substrate: CC(C)C[C@H](NC(=O)CNC(=O)CN)C(=O)N[C@@H](Cc1ccccc1)C(=O)N[C@@H](CO)C(=O)N[C@@H](CCCNC(=N)N)C(=O)N[C@@H](Cc1c[nH]c2ccccc12)C(=O)N[C@@H](CCCNC(=N)N)C(=O)O
Method: as §1, §2, §3

[3] = substrate: CC(C)C[C@H](NC(=O)[C@H](C)NC(=O)[C@H](CO)NC(=O)[C@H](CC(N)=O)NC(=O)[C@H](CCC(=O)O)NC(=O)[C@H](CO)NC(=O)CN)C(=O)N[C@@H](CCCCN)C(=O)O
Method: as §1, §2, §3

[4] = substrate: CC(C)C[C@H](NC(=O)[C@H](CCC(N)=O)NC(=O)[C@H](CCC(N)=O)NC(=O)[C@H](CO)NC(=O)[C@H](C)NC(=O)[C@H](CCCCN)NC(=O)[C@H](CCC(N)=O)NC(=O)CN)C(=O)O
Method: as §1, §2, §3

[5] = substrate: CC(C)C[C@H](NC(=O)[C@H](CS)NC(=O)[C@H](CC(N)=O)NC(=O)CN)C(=O)N[C@@H](CCCCN)C(=O)N[C@@H](CO)C(=O)N1CCC[C@H]1C(=O)N[C@H](C(=O)O)[C@@H](C)O
Method: as §1, §2, §3

[6] = substrate: CC(C)C[C@H](NC(=O)[C@H](Cc1c[nH]cn1)NC(=O)[C@H](C)NC(=O)CN)C(=O)N[C@H](C(=O)N[C@@H](CCCNC(=N)N)C(=O)N[C@@H](CCCNC(=N)N)C(=O)N[C@@H](Cc1ccc(O)cc1)C(=O)O)C(C)C
Method: as §1, §2, §3

[7] = substrate: CC(C)[C@H](NC(=O)[C@H](CCCNC(=N)N)NC(=O)[C@H](CO)NC(=O)CN)C(=O)N[C@@H](CO)C(=O)N[C@@H](CCCNC(=N)N)C(=O)N[C@@H](CCC(=O)O)C(=O)N[C@@H](CC(=O)O)C(=O)O
Method: as §1, §2, §3

[8] = substrate: CC(C)[C@H](NC(=O)[C@H](CS)NC(=O)CN)C(=O)N[C@@H](CCC(N)=O)C(=O)N[C@@H](CS)C(=O)N[C@@H](CCCCN)C(=O)N[C@@H](CC(=O)O)C(=O)N[C@@H](CCCCN)C(=O)O
Method: as §1, §2, §3

[9] = substrate: CC[C@H](C)[C@H](NC(=O)CNC(=O)[C@H](CCCNC(=N)N)NC(=O)[C@@H](NC(=O)[C@@H](NC(=O)[C@H](CC(C)C)NC(=O)[C@H](C)NC(=O)CN)C(C)C)[C@@H](C)CC)C(=O)O
Method: as §1, §2, §3

[10] = substrate: CC[C@H](C)[C@H](NC(=O)[C@@H](NC(=O)[C@H](CC(C)C)NC(=O)[C@H](CC(C)C)NC(=O)CN)[C@@H](C)O)C(=O)N[C@@H](CC(C)C)C(=O)N[C@@H](CCCCN)C(=O)N[C@@H](CCCCN)C(=O)O
Method: as §1, §2, §3

[11] = substrate: CC[C@H](C)[C@H](NC(=O)[C@H](CCCCN)NC(=O)[C@H](CO)NC(=O)[C@H](CC(C)C)NC(=O)[C@@H](NC(=O)[C@H](CCCCN)NC(=O)CN)C(C)C)C(=O)N[C@@H](Cc1ccccc1)C(=O)O
Method: as §1, §2, §3

[12] = substrate: CC[C@H](C)[C@H](NC(=O)[C@H](CS)NC(=O)CN)C(=O)N[C@@H](CCCCN)C(=O)N[C@@H](CO)C(=O)N[C@@H](CCCCN)C(=O)NCC(=O)N[C@@H](CCCCN)C(=O)O
Method: as §1, §2, §3

[13] = substrate: CC[C@H](C)[C@H](NC(=O)[C@H](CS)NC(=O)CN)C(=O)N[C@@H](CCCCN)C(=O)N[C@@H](CO)C(=O)N[C@@H](CCCCN)C(=O)N[C@@H](CCC(=O)O)C(=O)N[C@@H](CC(N)=O)C(=O)O
Method: as §1, §2, §3

[14] = substrate: CSCC[C@H](NC(=O)[C@@H](NC(=O)[C@H](CCC(=O)O)NC(=O)CN)[C@@H](C)O)C(=O)N[C@@H](CO)C(=O)N[C@@H](CCCCN)C(=O)N[C@@H](CCCNC(=N)N)C(=O)N[C@@H](CC(C)C)C(=O)O
Method: as §1, §2, §3

[15] = substrate: C[C@H](N)C(=O)N[C@@H](CO)C(=O)N[C@@H](CC(N)=O)C(=O)N[C@@H](CCCCN)C(=O)N[C@@H](CO)C(=O)N[C@@H](CCCCN)C(=O)N1CCC[C@H]1C(=O)N[C@@H](CCCCN)C(=O)O
Method: as §1, §2, §3

[16] = substrate: C[C@H](NC(=O)[C@@H](NC(=O)[C@H](CCCCN)NC(=O)[C@H](CO)NC(=O)[C@H](Cc1ccccc1)NC(=O)[C@H](CCC(N)=O)NC(=O)[C@H](C)NC(=O)CN)[C@@H](C)O)C(=O)O
Method: as §1, §2, §3

[17] = substrate: C[C@H](NC(=O)[C@@H]1CCCN1C(=O)CNC(=O)[C@H](CO)NC(=O)[C@H](CCC(N)=O)NC(=O)[C@H](CCCCN)NC(=O)[C@H](C)NC(=O)CN)C(=O)O
Method: as §1, §2, §3

[18] = substrate: C[C@H](NC(=O)[C@H](CC(N)=O)NC(=O)CN)C(=O)N[C@@H](CCC(N)=O)C(=O)N[C@@H](CCC(=O)O)C(=O)N[C@@H](CCCNC(=N)N)C(=O)N1CCC[C@H]1C(=O)N[C@@H](CO)C(=O)O
Method: as §1, §2, §3

[19] = substrate: C[C@H](NC(=O)[C@H](CCCCN)NC(=O)[C@H](CO)NC(=O)[C@H](CO)NC(=O)[C@H](CCC(N)=O)NC(=O)[C@H](CO)NC(=O)CN)C(=O)N1CCC[C@H]1C(=O)O
Method: as §1, §2, §3

[20] = substrate: C[C@H](NC(=O)[C@H](CCCCN)NC(=O)[C@H](CO)NC(=O)[C@H](CO)NC(=O)[C@H](CCCCN)NC(=O)[C@H](CCCNC(=N)N)NC(=O)CN)C(=O)N[C@@H](CCCCN)C(=O)O
Method: as §1, §2, §3

[21] = substrate: N=C(N)NCCC[C@H](NC(=O)[C@H](CCCNC(=N)N)NC(=O)[C@H](CCCCN)NC(=O)[C@H](CO)NC(=O)[C@H](Cc1ccccc1)NC(=O)[C@H](Cc1ccccc1)NC(=O)[C@H](CS)NC(=O)CN)C(=O)O
Method: as §1, §2, §3

[22] = substrate: N=C(N)NCCC[C@H](NC(=O)[C@H](CS)NC(=O)CN)C(=O)N[C@@H](CCC(N)=O)C(=O)N[C@@H](CO)C(=O)N[C@@H](CO)C(=O)N[C@@H](CCC(=O)O)C(=O)N[C@@H](CCC(=O)O)C(=O)O
Method: as §1, §2, §3

[23] = substrate: N=C(N)NCCC[C@H](NC(=O)[C@H](Cc1ccc(O)cc1)NC(=O)[C@H](Cc1c[nH]cn1)NC(=O)[C@H](CCCNC(=N)N)NC(=O)[C@H](CO)NC(=O)[C@H](CCC(=O)O)NC(=O)[C@H](CCCNC(=N)N)NC(=O)CN)C(=O)O
Method: as §1, §2, §3

[24] = substrate: NCCCC[C@H](NC(=O)[C@@H]1CCCN1C(=O)[C@H](CCCCN)NC(=O)[C@H](CO)NC(=O)[C@H](CCCCN)NC(=O)[C@H](CC(N)=O)NC(=O)[C@H](CO)NC(=O)CN)C(=O)O
Method: as §1, §2, §3

B1: full length NMT1 protein (Homo sapiens) (protein)
chain: MADESETAVKPPAPPLPQMMEGNGNGHEHCSDCENEEDNSYNRGGLSPANDTGAKKKKKKQKKKKEKGSETDSAQDQPVKMNSLPAERIQEIQKAIELFSVGQGPAKTMEEASKRSYQFWDTQPVPKLGEVVNTHGPVEPDKDNIRQEPYTLPQGFTWDALDLGDRGVLKELYTLLNENYVEDDDNMFRFDYSPEFLLWALRPPGWLPQWHCGVRVVSSRKLVGFISAIPANIHIYDTEKKMVEINFLCVHKKLRSKRVAPVLIREITRRVHLEGIFQAVYTAGVVLPKPVGTCRYWHRSLNPRKLIEVKFSHLSRNMTMQRTMKLYRLPETPKTAGLRPMETKDIPVVHQLLTRYLKQFHLTPVMSQEEVEHWFYPQENIIDTFVVENANGEVTDFLSFYTLPSTIMNHPTHKSLKAAYSFYNVHTQTPLLDLMSDALVLAKMKGFDVFNALDLMENKTFLEKLKFGIGDGNLQYYLYNWKCPSMGAEKVGLVLQ
notes: Km and Vmax catalyzed by full length NMT1 protein were calculated
B1 showed a Vmax [1] of 1.8 µM/min, a Km [2] of 10.3 µM and a Vmax [2] of 21.9 µM/min. The Km [3] was 0.8 µM, the Vmax [3] was 1.7 µM/min and the Km [4] was 15.7 µM. It also gave a Vmax [4] of 3.4 µM/min, a Km [5] of 16.7 µM and a Vmax [5] of 61.1 µM/min. For the same protein, the Km [6] was 16.4 µM, the Vmax [6] was 2.8 µM/min and the Km [7] was 79.2 µM. For the same protein, the Vmax [7] was 12.9 µM/min, the Km [8] was 5.2 µM and the Vmax [8] was 54.9 µM/min. It also gave a Km [9] of 0.5 µM, a Vmax [9] of 1.2 µM/min and a Km [10] of 0.4 µM. The Vmax [10] was 1.2 µM/min, the Km [11] was 4.4 µM and the Vmax [11] was 13.6 µM/min. It also gave a Km [12] of 22.5 µM, a Vmax [12] of 64.7 µM/min and a Km [13] of 14.4 µM. For the same protein, the Vmax [13] was 61 µM/min, the Km [14] was 13.0 µM and the Vmax [14] was 5.3 µM/min. It also gave a Vmax [15] of 1 µM/min, a Km [16] of 38.4 µM and a Vmax [16] of 6.4 µM/min. It also gave a Km [17] of 2.0 µM, a Vmax [17] of 1.6 µM/min and a Km [18] of 1.4 µM. For the same protein, the Vmax [18] was 2 µM/min, the Km [19] was 11.7 µM and the Vmax [19] was 6.6 µM/min. It also gave a Km [20] of 1.2 µM, a Vmax [20] of 1.8 µM/min and a Km [21] of 13.6 µM. The Vmax [21] was 60.8 µM/min, the Km [22] was 15.7 µM and the Vmax [22] was 64.4 µM/min. It also gave a Vmax [23] of 2 µM/min, a Km [24] of 14.3 µM and a Vmax [24] of 25.8 µM/min.

Reference: patent US20220195455A1, “DELIVERY OF CRISPR/MCAS9 THROUGH EXTRACELLULAR VESICLES FOR GENOME EDITING” (University of Georgia Research Foundation, Inc., priority 2019, published 2022)
